The target in the test is (Gly)5–PIP5K1A (aa 1–546), purified human PIP5K1A (human, UniProt Q99755 1-546). Kind of test: cell-based or functional assay.
Sequence of (Gly)5–PIP5K1A (aa 1–546), purified human PIP5K1A (Q99755 other isoform, or with tags, fused parts or gaps): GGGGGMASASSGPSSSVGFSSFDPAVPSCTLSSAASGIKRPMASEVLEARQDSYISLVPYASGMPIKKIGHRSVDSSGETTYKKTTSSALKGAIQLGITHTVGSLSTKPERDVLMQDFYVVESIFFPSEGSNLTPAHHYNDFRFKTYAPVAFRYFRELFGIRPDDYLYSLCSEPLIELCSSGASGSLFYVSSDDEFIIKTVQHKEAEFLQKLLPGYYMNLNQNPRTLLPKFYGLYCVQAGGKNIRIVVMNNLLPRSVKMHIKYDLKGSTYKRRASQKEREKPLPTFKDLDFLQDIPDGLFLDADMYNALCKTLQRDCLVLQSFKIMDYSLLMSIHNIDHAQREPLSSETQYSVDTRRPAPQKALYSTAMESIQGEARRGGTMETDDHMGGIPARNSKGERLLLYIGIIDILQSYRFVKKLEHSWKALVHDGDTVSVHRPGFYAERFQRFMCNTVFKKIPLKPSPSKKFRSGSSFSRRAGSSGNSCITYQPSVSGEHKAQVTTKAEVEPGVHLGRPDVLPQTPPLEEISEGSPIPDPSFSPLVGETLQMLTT

B1: (Gly)5–PIP4K2A (aa 1–406), purified human PIP4K2A (enzyme)
chain: GGGGGMATPGNLGSSVLASKTKTKKKHFVAQKVKLFRASDPLLSVLMWGVNHSINELSHVQIPVMLMPDDFKAYSKIKVDNHLFNKENMPSHFKFKEYCPMVFRNLRERFGIDDQDFQNSLTRSAPLPNDSQARSGARFHTSYDKRYIIKTITSEDVAEMHNILKKYHQYIVECHGITLLPQFLGMYRLNVDGVEIYVIVTRNVFSHRLSVYRKYDLKGSTVAREASDKEKAKELPTLKDNDFINEGQKIYIDDNNKKVFLEKLKKDVEFLAQLKLMDYSLLVGIHDVERAEQEEVECEENDGEEEGESDGTHPVGTPPDSPGNTLNSSPPLAPGEFDPNIDVYGIKCHENSPRKEVYFMAIIDILTHYDAKKKAAHAAKTVKHGAGAEISTVNPEQYSKRFLDFIGHILT
modifications: fluorescently labelled LPETGG peptide (Alexa Fluor 488, Alexa Fluor 647 or Cy5) ligated by sortase onto the N-terminal (Gly)5 motif
Turning to B1, the “kinetics of PI(4,5)P2 production on PI4P-containing supported lipid bilayers, 1 nM PIP5K1A with or without 50 nM PIP4K2A; time to completion of the reaction” value was 2 fold (reaction completion time).
